Reference: patent publication US20220235144A1 (QILU PUGET SOUND BIOTHERAPEUTICS, published 2022)

Columns and labels:
[1] = molecular target: T1, hSIRPαV2D1 with histidine tag (human); assay: SPR (Biacore 3000), IgG captured, single analyte concentration 50 nM
T1 construct: analyte of the Biacore experiments; also called first immunoglobulin-like domain of human SIRPα variant V2; not shown: histidine tag
Description: (§1) Briefly, biosensor analysis was conducted at 25° C. in an HPS-EP buffer (10 mM HEPES, 150 mM NaCl, 3 mM EDTA, 0.005% polysorbate 20, 0.1% bovine serum albumin, pH 7.4) using a Biacore 3000 optical biosensor equipped with a CM5 sensor chip according to the manufacturer's protocol. The auto sampler was maintained at ambient temperature. Goat anti-human IgG capture antibody (Jackson Laboratories; 109-005-098) was immobilized on the four flow cells in each sensor chip using standard amine coupling chemistry. About 8000 resonance units (RU) of this antibody was immobilized on each flow cell. Flow cells 2, 3, and 4 were used to analyze captured anti-SIRPα antibodies (about 250 to 300 RU were captured on each of flow cells 2, 3, and 4), while flow cell 1 was used as the reference flow cell. The analytes tested were hSIRPαV1D1, hSIRPαV2D1, cynomolgus monkey SIRPαV1D1 (cSIRPαV1D1), cSIRPαV2D1, hSIRPβ1D1, and hSIRPγD1, each of which also included a histidine tag. The sequences of cSIRPαV1D1 and cSIRPαV2D2 are provided in SEQ ID NOs: 143 and 142, respectively. To avoid confusion, the differences between the amino acid sequences of cSIRPαV1D1 and cSIRPαV2D1 are not the same as the differences between the amino acid sequences of hSIRPαV1D1 and hSIRPαV2D1. […]
(§2) In a separate experiment, KDs of additional variants of Ab11_G4 and Ab24_G4 were determined for binding to hSIRPαV1D1 and hSIRPαV2D1. […]

[2] = molecular target: T2, hSIRPαV1D1 with histidine tag (human, UniProt P78324 31-147); assay: as above
T2 construct: analyte of the Biacore experiments; also called first immunoglobulin-like domain of human SIRPα variant V1; not shown: histidine tag
Description: as §1, §2

T2 sequence (P78324 31-147 limits assumed): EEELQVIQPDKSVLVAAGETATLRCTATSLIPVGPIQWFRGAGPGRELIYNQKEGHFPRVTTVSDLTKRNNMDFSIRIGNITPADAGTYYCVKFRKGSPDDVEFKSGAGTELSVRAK
T1 sequence (chain, as listed by the source limits assumed): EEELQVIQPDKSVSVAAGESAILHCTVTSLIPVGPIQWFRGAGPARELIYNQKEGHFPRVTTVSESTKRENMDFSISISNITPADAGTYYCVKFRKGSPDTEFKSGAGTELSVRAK

Kd [1]: 1.19 nM | Kd [2]: 19.4 nM
B1: Ab24_G1AAA (antibody, human IgG1, kappa, L234A L235A)
heavy: EVQLVESGGGLVKPGGSLRLSCAASGFTFSSYVMSWVRQTPGKGLEWVATISSGGTYTYYPDSVKGRFTLSRDNAKNSLYLQMNSLRAEDTAVYYCASQLTGSEFDYWGQGTTVTVSSASTKGPSVFPLAPSSKSTSGGTAALGCLVKDYFPEPVTVSWNSGALTSGVHTFPAVLQSSGLYSLSSVVTVPSSSLGTQTYICNVNHKPSNTKVDKKVEPKSCDKTHTCPPCPAPEAAGGPSVFLFPPKPKDTLMISRTPEVTCVVVDVSHEDPEVKFNWYVDGVEVHNAKTKPREEQYNSTYRVVSVLTVLHQDWLNGKEYKCKVSNKALAAPIEKTISKAKGQPREPQVYTLPPSREEMTKNQVSLTCLVKGFYPSDIAVEWESNGQPENNYKTTPPVLDSDGSFFLYSKLTVDKSRWQQGNVFSCSVMHEALHNHYTQKSLSLSPGK
light: DIVLTQSPASLAVSLGERATISCRASESVDLYGTSFMHWYQQKPGQPPKLLIYRASNLESGVPDRFSGSGSRTDFTLTINPLQAEDVATYYCHQSSDELPWTFGGGTKVEIKRTVAAPSVFIFPPSDEQLKSGTASVVCLLNNFYPREAKVQWKVDNALQSGNSQESVTEQDSKDSTYSLSSTLTLSKADYEKHKVYACEVTHQGLSSPVTKSFNRGEC
notes: also called Ab24_AAA; 24_AAA
